Results as given in patent US20210253718A1 (MODMAB THERAPEUTICS, published 2021).
Numbering of substitutions follows the chain as printed.

T1: FZD3 cysteine-rich domain (CRD), MYC-tagged and GPI-anchored on CHO cells (human, UniProt Q9NPG1 24-150, GPI anchor)
T1 construct: domain: cysteine-rich domain (CRD); also called FZD3 CRD; CHO-myc-FZDGPI; not shown: MYC tag and GPI anchor signal
T1 sequence (looked up): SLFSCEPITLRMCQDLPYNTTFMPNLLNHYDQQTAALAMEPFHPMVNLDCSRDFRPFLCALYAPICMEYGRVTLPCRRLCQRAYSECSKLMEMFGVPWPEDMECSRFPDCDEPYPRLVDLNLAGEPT

T2: FZD4 cysteine-rich domain (CRD), MYC-tagged and GPI-anchored on CHO cells (human, UniProt Q9ULV1 42-167, GPI anchor)
T2 construct: also called FZD4 CRD; CHO-myc-FZDGPI; not shown: MYC tag and GPI anchor signal
T2 sequence: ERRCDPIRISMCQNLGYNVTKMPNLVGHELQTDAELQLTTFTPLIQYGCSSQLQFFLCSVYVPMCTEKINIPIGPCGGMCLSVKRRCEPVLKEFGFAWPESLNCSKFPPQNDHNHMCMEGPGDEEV

T3: FZD5 cysteine-rich domain (CRD), MYC-tagged and GPI-anchored on CHO cells (human, UniProt Q13467 29-156, GPI anchor)
T3 construct: also called FZD5 CRD; CHO-myc-FZDGPI; not shown: MYC tag and GPI anchor signal
T3 sequence: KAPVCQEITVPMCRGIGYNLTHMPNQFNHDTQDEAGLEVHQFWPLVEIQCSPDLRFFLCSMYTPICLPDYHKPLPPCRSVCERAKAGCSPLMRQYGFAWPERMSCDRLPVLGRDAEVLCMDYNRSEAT

T4: FZD6 cysteine-rich domain (CRD), MYC-tagged and GPI-anchored on CHO cells (human, UniProt O60353 20-146, GPI anchor)
T4 construct: also called FZD6 CRD; CHO-myc-FZDGPI; not shown: MYC tag and GPI anchor signal
T4 sequence: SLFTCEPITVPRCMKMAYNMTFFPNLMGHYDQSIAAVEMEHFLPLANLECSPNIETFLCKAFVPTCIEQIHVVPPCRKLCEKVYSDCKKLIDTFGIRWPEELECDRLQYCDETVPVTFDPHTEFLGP

T5: FZD8 cysteine-rich domain (CRD), MYC-tagged and GPI-anchored on CHO cells (human, UniProt Q498S8 31-155 (rat entry), GPI anchor)
T5 construct: also called FZD8 CRD; CHO-myc-FZDGPI; not shown: MYC tag and GPI anchor signal
T5 sequence: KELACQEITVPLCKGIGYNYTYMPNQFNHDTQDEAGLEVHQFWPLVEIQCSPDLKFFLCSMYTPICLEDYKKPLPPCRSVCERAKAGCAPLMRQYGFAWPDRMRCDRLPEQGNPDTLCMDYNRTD

T6: FZD9 cysteine-rich domain (CRD), MYC-tagged and GPI-anchored on CHO cells (human, UniProt O00144 35-161, GPI anchor)
T6 construct: also called FZD9 CRD; CHO-myc-FZDGPI; not shown: MYC tag and GPI anchor signal
T6 sequence: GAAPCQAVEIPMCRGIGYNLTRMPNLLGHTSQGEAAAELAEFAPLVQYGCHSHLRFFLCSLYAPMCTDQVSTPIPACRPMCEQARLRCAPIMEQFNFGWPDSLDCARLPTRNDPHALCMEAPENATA

T7: FZD10 cysteine-rich domain (CRD), MYC-tagged and GPI-anchored on CHO cells (human, UniProt Q9ULW2 30-156, GPI anchor)
T7 construct: also called FZD10 CRD; CHO-myc-FZDGPI; not shown: MYC tag and GPI anchor signal
T7 sequence: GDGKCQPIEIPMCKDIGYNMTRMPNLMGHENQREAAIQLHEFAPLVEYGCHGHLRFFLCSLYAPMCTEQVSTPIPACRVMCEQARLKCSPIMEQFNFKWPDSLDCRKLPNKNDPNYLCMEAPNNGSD

B1: Fab-2915 (Fab, V domains shown)
VH: EVQLVESGGGLVQPGGSLRLSCAASGFNIYYYSMHWVRQAPGKGLEWVASIYSSYGYTSYADSVKGRFTISADTSKNTAYLQMNSLRAEDTAVYYCARGYHYYPYYSGLDYWGQGTLVTVSS
VL: DIQMTQSPSSLSASVGDRVTITCRASQSVSSAVAWYQQKPGKAPKLLIYSASSLYSGVPSRFSGSRSGTDFTLTISSLQPEDFATYYCQQAYYHSLITFGQGTKVEIK
notes: Fab; also called Fv-2915
B2: Fab-2903 (Fab, V domains shown)
VH: EVQLVESGGGLVQPGGSLRLSCAASGFNLSYYYIHWVRQAPGKGLEWVASIYPYSSYTSYADSVKGRFTISADTSKNTAYLQMNSLRAEDTAVYYCARGAIDYWGQGTLVTVSS
V domain: DIQMTQSPSSLSASVGDRVTITCRASQSVSSAVAWYQQKPGKAPKLLIYSASSLYSGVPSRFSGSRSGTDFTLTISSLQPEDFATYYCQQWGGGSSLFTFG
notes: Fab; also called Fv-2903
B3: Fab-2932 (Fab, V domains shown)
VH: B2 VH with L29I, Y32S, I34M, P53S, Y54S, S55Y, Y57S, I101L
VL: DIQMTQSPSSLSASVGDRVTITCRASQSVSSAVAWYQQKPGKAPKLLIYSASSLYSGVPSRFSGSRSGTDFTLTISSLQPEDFATYYCQQWYGSFALITFGQGTKVEIK
notes: Fab; also called Fv-2932
B4: Fab-2901 (Fab, V domains shown)
VH: EVQLVESGGGLVQPGGSLRLSCAASGFNISYSYMHWVRQAPGKGLEWVASIYSYSSYTYYADSVKGRFTISADTSKNTAYLQMNSLRAEDTAVYYCARSWYYWSPSSGMDYWGQGTLVTVSS
VL: DIQMTQSPSSLSASVGDRVTITCRASQSVSSAVAWYQQKPGKAPKLLIYSASSLYSGVPSRFSGSRSGTDFTLTISSLQPEDFATYYCQQGGFLITFGQGTKVEIK
notes: Fab; also called Fv-2901
B5: Fab-2900 (Fab, V domains shown)
VH: B2 VH with Y31S, Y52S, P53S, Y54S, Y57S, I101L
VL: B3 VL with G93S, S94G, F95S, A96S, I98F
notes: Fab; also called Fv-2900
B6: Fab-2905 (Fab, V domains shown)
VH: EVQLVESGGGLVQPGGSLRLSCAASGFNLSYYYMHWVRQAPGKGLEWVASIYSSYSYTSYADSVKGRFTISADTSKNTAYLQMNSLRAEDTAVYYCARSGYALDYWGQGTLVTVSS
VL: DIQMTQSPSSLSASVGDRVTITCRASQSVSSAVAWYQQKPGKAPKLLIYSASSLYSGVPSRFSGSRSGTDFTLTISSLQPEDFATYYCQQSSWYYGYPFTFGQGTKVEIK
notes: Fab; also called Fv-2905
B7: Fab-2931 (Fab, V domains shown)
VH: EVQLVESGGGLVQPGGSLRLSCAASGFNLSYSSMHWVRQAPGKGLEWVAYISPYSGSTYYADSVKGRFTISADTSKNTAYLQMNSLRAEDTAVYYCARGSYWYVGGGWWVSGHGGMDYWGQGTLVTVSS
VL: DIQMTQSPSSLSASVGDRVTITCRASQSVSSAVAWYQQKPGKAPKLLIYSASSLYSGVPSRFSGSRSGTDFTLTISSLQPEDFATYYCQQSSYSLITFGQGTKVEIK
notes: Fab; also called Fv-2931

What follows are binders tested against FZD1 cysteine-rich domain (CRD), MYC-tagged and GPI-anchored on CHO cells (human) (assay: flow cytometry, CHO-CRD cells;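 also: flow cytometry of Fab binding to CHO cells overexpressing a Frizzled CRD, with binding defined as median fluorescence over twice that of CHO cells lacking any Frizzled CRD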).
Description: (§1) Binding was measured via flow cytometry analysis of CHO cells overexpressing CRD of FZD1, FZD2, FZD3, FZD4, FZD5, FZD6, FZD7, FZD8, FZD9 or FZD10. Median fluorescence values are shown.

median fluorescence	Binder
36.9	B1
8.66	B2
16.6	B3
17.1	B4

What follows are binders tested against FZD2 cysteine-rich domain (CRD), MYC-tagged and GPI-anchored on CHO cells (human, UniProt Q14332 35-161) (assay: flow cytometry, CHO-CRD cells;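 also: flow cytometry of Fab binding to CHO cells overexpressing a Frizzled CRD, with binding defined as median fluorescence over twice that of CHO cells lacking any Frizzled CRD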).
Description: as §1

median fluorescence	Binder
22.1	B1

Each binder was assayed against T1, FZD3 cysteine-rich domain (CRD), … (assay: flow cytometry, CHO-CRD cells;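 also: flow cytometry of Fab binding to CHO cells overexpressing a Frizzled CRD, with binding defined as median fluorescence over twice that of CHO cells lacking any Frizzled CRD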).
Description: as §1

median fluorescence	Binder
5.05	B1
4.26	B5
4.18	B2
3.85	B3
4.1	B4
4.1	B6
3.49	B7

The binders below were run against T2, FZD4 cysteine-rich domain (CRD), … (assay: flow cytometry, CHO-CRD cells;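 also: flow cytometry of Fab binding to CHO cells overexpressing a Frizzled CRD, with binding defined as median fluorescence over twice that of CHO cells lacking any Frizzled CRD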).
Description: as §1

median fluorescence	Binder
5.99	B1
5.62	B5
5.52	B2
4.26	B3
5.09	B4
4.57	B6
3.65	B7

What follows are binders tested against T3, FZD5 cysteine-rich domain (CRD), … (assay: flow cytometry, CHO-CRD cells).
Description: as §1

median fluorescence	Binder
38.2	B5
34.9	B2
29.4	B3
32.8	B4
24.8	B6
28.1	B7

What follows are binders tested against T4, FZD6 cysteine-rich domain (CRD), … (assay: flow cytometry, CHO-CRD cells).
Description: as §1

median fluorescence	Binder
3.37	B1
3.37	B5
3.52	B2
3.11	B3
3.62	B4
3.22	B6
2.89	B7

These binders were tested against FZD7 cysteine-rich domain (CRD), MYC-tagged and GPI-anchored on CHO cells (human, UniProt O75084 45-169) (assay: flow cytometry, CHO-CRD cells).
Description: as §1

median fluorescence	Binder
40.7	B1
8.58	B2
34.3	B3
47	B4

Each binder was assayed against T5, FZD8 cysteine-rich domain (CRD), … (assay: flow cytometry, CHO-CRD cells).
Description: as §1

median fluorescence	Binder
23.3	B5
13.7	B2
28.9	B3
10.9	B4

The binders below were run against T6, FZD9 cysteine-rich domain (CRD), … (assay: flow cytometry, CHO-CRD cells).
Description: as §1

median fluorescence	Binder
3.92	B1
3.01	B5
3.11	B2
3.62	B3
3.25	B4
3.25	B6
2.76	B7

These binders were tested against T7, FZD10 cysteine-rich domain (CRD), … (assay: flow cytometry, CHO-CRD cells).
Description: as §1

median fluorescence	Binder
3.92	B1
3.25	B5
3.05	B2
3.82	B3
3.85	B4
3.31	B6
2.59	B7

Each binder was assayed against T1, FZD3 cysteine-rich domain (CRD), … (assay: immunofluorescence, CHO-CRD cells).

binding result	Binder
no binding	B1
no binding	B5
no binding	B2
no binding	B3
no binding	B4
no binding	B6
no binding	B7

What follows are binders tested against T2, FZD4 cysteine-rich domain (CRD), … (assay: immunofluorescence, CHO-CRD cells).

binding result	Binder
no binding	B1
no binding	B5
no binding	B2
no binding	B3
no binding	B4
no binding	B6
no binding	B7

These binders were tested against T4, FZD6 cysteine-rich domain (CRD), … (assay: immunofluorescence, CHO-CRD cells).

binding result	Binder
no binding	B1
no binding	B5
no binding	B2
no binding	B3
no binding	B4
no binding	B6
no binding	B7

What follows are binders tested against T6, FZD9 cysteine-rich domain (CRD), … (assay: immunofluorescence, CHO-CRD cells).

binding result	Binder
no binding	B1
no binding	B5
no binding	B2
no binding	B3
no binding	B4
no binding	B6
no binding	B7

What follows are binders tested against T7, FZD10 cysteine-rich domain (CRD), … (assay: immunofluorescence, CHO-CRD cells).

binding result	Binder
no binding	B1
no binding	B5
no binding	B2
no binding	B3
no binding	B4
no binding	B6
no binding	B7
